What was measured:
[1] = Ratio (FA) of Vmax/Km of AMP to that of compound
[2] = Ratio (FA) of Vmax/Km of the compound
[3] = substrate: Nc1ncnc2c1ncn2[C@H]1CC[C@@H](CCOP(=O)(O)O)C1; test: (§1) Km value as a substrate for Pyrophosphate Synthetase (PRPP); settings: Escherichia coli
[4] = substrate: Nc1ncnc2c1ncn2[C@H]1CC[C@@H](CCP(=O)(O)O)C1; test: as §1; settings: Escherichia coli
[5] = substrate: Nc1ncnc2c1ncn2C1O[C@H](COP(=O)(O)O)[C@H](O)[C@@H]1O; test: as §1; settings: Escherichia coli
[6] = substrate: Nc1ncnc2c1ncn2CCCCCP(=O)(O)O; test: as §1; settings: Escherichia coli
[7] = substrate: Nc1ncnc2c1ncn2[C@@H]1C[C@H](CCP(=O)(O)O)C[C@@H]1O; test: as §1; settings: Escherichia coli
[8] = substrate: Nc1ncnc2c1ncn2[C@H]1CC[C@@H](CC(F)(F)P(=O)(O)O)C1; test: (§2) Vmax as a substrate for Pyrophosphate Synthetase (PRPP); settings: Escherichia coli
[9] = substrate: Nc1ncnc2c1ncn2[C@H]1CC[C@@H](CCOP(=O)(O)O)C1; test: as §2; settings: Escherichia coli
[10] = substrate: Nc1ncnc2c1ncn2[C@H]1CC[C@@H](CCP(=O)(O)O)C1; test: as §2; settings: Escherichia coli
[11] = substrate: Nc1ncnc2c1ncn2CCOCP(=O)(O)O; test: as §2; settings: Escherichia coli
[12] = substrate: Nc1ncnc2c1ncn2C1O[C@H](COP(=O)(O)O)[C@H](O)[C@@H]1O; test: as §2; settings: Escherichia coli
[13] = substrate: Nc1ncnc2c1ncn2CCCCCP(=O)(O)O; test: as §2; settings: Escherichia coli
[14] = substrate: Nc1ncnc2c1ncn2[C@@H]1C[C@H](CCP(=O)(O)O)C[C@@H]1O; test: as §2; settings: Escherichia coli
[15] = substrate: Nc1ncnc2c1ncn2C1CCC(COP(=O)(O)O)O1; test: Vmax as a substrate for 0.4 ug of Pyrophosphate Synthetase (PRPP) per assay; settings: Escherichia coli
[16] = substrate: Nc1ncnc2c1ncn2C1CCC(COP(=O)(O)O)O1; test: Vmax as a substrate for per mg of Pyrophosphate Synthetase (PRPP); settings: Escherichia coli
[17] = substrate: Nc1ncnc2c1ncn2C1CCC(COP(=O)(O)O)O1; test: Km value as a substrate for 0.4 ug of Phosphribosyl Pyrophosphate Synthetase (PRPP) per assay; settings: Escherichia coli

Question: Which Ratio [1] does the source give for `Nc1ncnc2c1ncn2CCCCCP(=O)(O)O` here?
Answer: The Ratio was 32.

Question: Which Ratio [1] does the source give for `Nc1ncnc2c1ncn2[C@H]1CC[C@@H](CCOP(=O)(O)O)C1` here?
Answer: The Ratio was 179.

Question: For `Nc1ncnc2c1ncn2[C@@H]1C[C@H](CCP(=O)(O)O)C[C@@H]1O`, which Ratio [1] is on record?
Answer: Its Ratio is 11.

Question: For `Nc1ncnc2c1ncn2C1CCC(COP(=O)(O)O)O1` (stereo unspecified), which Ratio [2] is on record?
Answer: The Ratio was 1.

Question: With `Nc1ncnc2c1ncn2[C@@H]1O[C@H](COP(=O)(O)O)[C@H](O)[C@@H]1O` as the molecule, how does the Ratio [1] read?
Answer: Its Ratio is 13.

Question: With `Nc1ncnc2c1ncn2[C@H]1CC[C@@H](CCP(=O)(O)O)C1` as the molecule, how does the Ratio [1] read?
Answer: The Ratio was 63.

B1: Ribose-phosphate pyrophosphokinase 1 (Homo sapiens), P60891 (protein)
chain: MPNIKIFSGSSHQDLSQKIADRLGLELGKVVTKKFSNQETCVEIGESVRGEDVYIVQSGCGEINDNLMELLIMINACKIASASRVTAVIPCFPYARQDKKDKSRAPISAKLVANMLSVAGADHIITMDLHASQIQGFFDIPVDNLYAEPAVLKWIRENISEWRNCTIVSPDAGGAKRVTSIADRLNVDFALIHKERKKANEVDRMVLVGDVKDRVAILVDDMADTCGTICHAADKLLSAGATRVYAILTHGIFSGPAISRINNACFEAVVVTNTIPQEDKMKHCSKIQVIDISMILAEAIRRTHNGESVSYLFSHVPL
Question: With B1 as the molecule, how does the Km [3] read?
Answer: The Km was 260 µM.

Question: What about the Km [4] of the same molecule?
Answer: The Km was 550 µM.

Question: What about the Km [5] of the same molecule?
Answer: Its Km is 1700 µM.

Question: And the Km [6]?
Answer: Its Km is 690 µM.

Question: What about the Km [7] of the same molecule?
Answer: The Km was 240 µM.

Question: What about the Vmax [8] of the same molecule?
Answer: Its Vmax is 0.07%.

Question: And the Vmax [9]?
Answer: The Vmax was 0.5%.

Question: And the Vmax [10]?
Answer: Its Vmax is 3%.

Question: What about the Vmax [11] of the same molecule?
Answer: Its Vmax is 0.2%.

Question: What about the Vmax [12] of the same molecule?
Answer: Its Vmax is 45%.

Question: What about the Vmax [13] of the same molecule?
Answer: Its Vmax is 7.5%.

Question: What about the Vmax [14] of the same molecule?
Answer: Its Vmax is 7.4%.

Question: What about the Vmax [15] of the same molecule?
Answer: Its Vmax is 100%.

Question: What about the Vmax [16] of the same molecule?
Answer: Its Vmax is 34.5 µM/h.

Question: And the Km [17]?
Answer: The Km was 290 µM.

Source: ChEMBL document CHEMBL1126368, “Carbocyclic phosphonate analogs of 2,3-dideoxyadenosine-5-monophosphate as substrates of 5-phosphoribosyl-1-pyrophosphate (PRPP) synthetate” (Bioorg Med Chem Lett, 1992)
